We go through 47 variants from the Human Domainome abundance scans (Beltran et al. 2025).

± gives the uncertainty stated by the source.

The labels stand for the following.
B1: Zinc finger homeobox protein 3, residues 2244 to 2299; numbered along this chain, Q15911 (parent)
chain: SSRTRFTDYQLRVLQDFFDANAYPKDDEFEQLSNLLNLPTRVIVVWFQNARQKARK

Variants of B1 are the subject of this data set. In words: abundance fitness (aPCA) (normalised: wild type 0, dead -1); higher = more abundant; growth selection in yeast, the domain comes from the species named. The settings on record: Homo sapiens.
SSRTRFTDYQLRVLQDFFDANAYPKDDEFEDLSNLLNLPTRVIVVWFQNARQKARK: the abundance fitness is -0.193 ± 0.39.
As for SSRTRFTDYQLRVLQDFFDANAYPKDDEFEYLSNLLNLPTRVIVVWFQNARQKARK, the figure is -0.186 ± 0.24.
Then SSRTRFTDYQLRVLQDFFDANAYPKDDEFESLSNLLNLPTRVIVVWFQNARQKARK, with -0.082 ± 0.11.
As for SSRTRFTDYQLRVLQDFFDANAYPKDDEFEGLSNLLNLPTRVIVVWFQNARQKARK, the abundance fitness is -0.055 ± 0.085.
For the variant SSRTRFTDYQLRVLQDFFDANAYPKDDEFEALSNLLNLPTRVIVVWFQNARQKARK, the abundance fitness was -0.192 ± 0.12.
With SSRTRFTDYQLRVLQDFFDANAYPKDDEFEILSNLLNLPTRVIVVWFQNARQKARK, the abundance fitness amounted to 0.117 ± 0.29.
Take SSRTRFTDYQLRVLQDFFDANAYPKDDEFEKLSNLLNLPTRVIVVWFQNARQKARK: the abundance fitness was determined as 0.022 ± 0.13.
Then SSRTRFTDYQLRVLQDFFDANAYPKDDEFEMLSNLLNLPTRVIVVWFQNARQKARK, with -0.146 ± 0.12; and SSRTRFTDYQLRVLQDFFDANAYPKDDEFERLSNLLNLPTRVIVVWFQNARQKARK, with -0.007 ± 0.087; and SSRTRFTDYQLRVLQDFFDANAYPKDDEFEELSNLLNLPTRVIVVWFQNARQKARK, with -0.066 ± 0.13.
Consider SSRTRFTDYQLRVLQDFFDANAYPKDDEFEFLSNLLNLPTRVIVVWFQNARQKARK, for which the abundance fitness was 0.162 ± 0.27.
SSRTRFTDYQLRVLQDFFDANAYPKDDEFEWLSNLLNLPTRVIVVWFQNARQKARK: the abundance fitness was -0.279 ± 0.1.
Then SSRTRFTDYQLRVLQDFFDANAYPKDDEFENLSNLLNLPTRVIVVWFQNARQKARK, with 0.366 ± 0.27.
As for SSRTRFTDYQLRVLQDFFDANAYPKDDEFEHLSNLLNLPTRVIVVWFQNARQKARK, the figure is -0.165 ± 0.21.
For the variant SSRTRFTDYQLRVLQDFFDANAYPKDDEFETLSNLLNLPTRVIVVWFQNARQKARK, the abundance fitness was found to be 0.035 ± 0.13.
Then SSRTRFTDYQLRVLQDFFDANAYPKDDEFECLSNLLNLPTRVIVVWFQNARQKARK, with -0.031 ± 0.17; and SSRTRFTDYQLRVLQDFFDANAYPKDDEFELLSNLLNLPTRVIVVWFQNARQKARK, with -0.257 ± 0.11.
As for SSRTRFTDYQLRVLQDFFDANAYPKDDEFEPLSNLLNLPTRVIVVWFQNARQKARK, the figure is -0.764 ± 0.24; as for SSRTRFTDYQLRVLQDFFDANAYPKDDEFSQLSNLLNLPTRVIVVWFQNARQKARK, -0.135 ± 0.4.
Then SSRTRFTDYQLRVLQDFFDANAYPKDDEFGQLSNLLNLPTRVIVVWFQNARQKARK, with -0.357 ± 0.38.
Regarding SSRTRFTDYQLRVLQDFFDANAYPKDDEAEQLSNLLNLPTRVIVVWFQNARQKARK, the abundance fitness is -0.362 ± 0.09.
Consider SSRTRFTDYQLRVLQDFFDANAYPKDDEVEQLSNLLNLPTRVIVVWFQNARQKARK, for which the abundance fitness is -0.102 ± 0.079.
Take SSRTRFTDYQLRVLQDFFDANAYPKDDEYEQLSNLLNLPTRVIVVWFQNARQKARK: the abundance fitness was -0.052 ± 0.15.
Take SSRTRFTDYQLRVLQDFFDANAYPKDDEWEQLSNLLNLPTRVIVVWFQNARQKARK: the abundance fitness was -0.27 ± 0.094.
For SSRTRFTDYQLRVLQDFFDANAYPKDDEQEQLSNLLNLPTRVIVVWFQNARQKARK, the abundance fitness is -0.435 ± 0.16.
Then SSRTRFTDYQLRVLQDFFDANAYPKDDENEQLSNLLNLPTRVIVVWFQNARQKARK, with -0.622 ± 0.16.
For SSRTRFTDYQLRVLQDFFDANAYPKDDEREQLSNLLNLPTRVIVVWFQNARQKARK, the abundance fitness was -0.324 ± 0.078.
Then SSRTRFTDYQLRVLQDFFDANAYPKDDELEQLSNLLNLPTRVIVVWFQNARQKARK, with -0.035 ± 0.1.
Then SSRTRFTDYQLRVLQDFFDANAYPKDDEKEQLSNLLNLPTRVIVVWFQNARQKARK, with -0.412 ± 0.14; and SSRTRFTDYQLRVLQDFFDANAYPKDDEMEQLSNLLNLPTRVIVVWFQNARQKARK, with -0.271 ± 0.14; and SSRTRFTDYQLRVLQDFFDANAYPKDDEPEQLSNLLNLPTRVIVVWFQNARQKARK, with -0.915 ± 0.17.
As to SSRTRFTDYQLRVLQDFFDANAYPKDDEIEQLSNLLNLPTRVIVVWFQNARQKARK, the abundance fitness amounted to 0.071 ± 0.13.
On to SSRTRFTDYQLRVLQDFFDANAYPKDDESEQLSNLLNLPTRVIVVWFQNARQKARK, for which the abundance fitness was -0.423 ± 0.082.
Regarding SSRTRFTDYQLRVLQDFFDANAYPKDDETEQLSNLLNLPTRVIVVWFQNARQKARK, the abundance fitness was -0.27 ± 0.13.
Then SSRTRFTDYQLRVLQDFFDANAYPKDDEHEQLSNLLNLPTRVIVVWFQNARQKARK, with -0.484 ± 0.24.
As for SSRTRFTDYQLRVLQDFFDANAYPKDDEDEQLSNLLNLPTRVIVVWFQNARQKARK, the figure is -0.955 ± 0.22.
In the case of SSRTRFTDYQLRVLQDFFDANAYPKDDSFEQLSNLLNLPTRVIVVWFQNARQKARK, the abundance fitness is -0.295 ± 0.11.
With SSRTRFTDYQLRVLQDFFDANAYPKDDYFEQLSNLLNLPTRVIVVWFQNARQKARK, the abundance fitness is -0.785 ± 0.37.
As for SSRTRFTDYQLRVLQDFFDANAYPKDDRFEQLSNLLNLPTRVIVVWFQNARQKARK, the figure is -0.481 ± 0.088; as for SSRTRFTDYQLRVLQDFFDANAYPKDDWFEQLSNLLNLPTRVIVVWFQNARQKARK, -0.719 ± 0.11; as for SSRTRFTDYQLRVLQDFFDANAYPKDDCFEQLSNLLNLPTRVIVVWFQNARQKARK, -0.539 ± 0.2.
Then SSRTRFTDYQLRVLQDFFDANAYPKDDVFEQLSNLLNLPTRVIVVWFQNARQKARK, with -0.142 ± 0.098; and SSRTRFTDYQLRVLQDFFDANAYPKDDKFEQLSNLLNLPTRVIVVWFQNARQKARK, with -0.422 ± 0.13.
Turning to SSRTRFTDYQLRVLQDFFDANAYPKDDIFEQLSNLLNLPTRVIVVWFQNARQKARK, the abundance fitness was -0.374 ± 0.2.
Then SSRTRFTDYQLRVLQDFFDANAYPKDDNFEQLSNLLNLPTRVIVVWFQNARQKARK, with -0.39 ± 0.19.
For the variant SSRTRFTDYQLRVLQDFFDANAYPKDDDFEQLSNLLNLPTRVIVVWFQNARQKARK, the abundance fitness was found to be 0.2 ± 0.22.
Then SSRTRFTDYQLRVLQDFFDANAYPKDDGFEQLSNLLNLPTRVIVVWFQNARQKARK, with -0.488 ± 0.1.
